Data reported in publication PMC10098127.

Target: HA-tagged N100A zDHHC17 (mouse) (UniProt Q80TN5)

Human ankyrin-B-GFP (220-kDa splice variant of ankyrin-B)
protein levels of ankyrin-B-GFP (western blot) co-expressed with N100A zDHHC17 in HEK293T cells, against WT zDHHC17 or zDHHA17: 3 fold
